The source of these data is PMC7379371.

Assay [1] has as its target chimeric antibody I3.1 Fab (human). Put plainly: BLI; […]; Fab (0.2 mg/mL) […] (9.6 to 110 μM); 10 mM Tris, pH 7.5, 100 mM NaCl; […]. (Biolayer interferometry detects binding as a change in optical thickness at a sensor tip.)
For assay [2] the target is unchanged. Put plainly: BLI; fortéBIO BLItz; Fab (0.2 mg/mL) immobilised on Anti-Human Fab-CH1 second generation biosensors; gp120 core in solution at three or more concentrations (9.6 to 110 μM); 10 mM Tris, pH 7.5, 100 mM NaCl; global fit of at least three measurements.

chimeric antibody I3.1 Fab (human), sequence (heavy, as listed by the source, chain 1 of 2): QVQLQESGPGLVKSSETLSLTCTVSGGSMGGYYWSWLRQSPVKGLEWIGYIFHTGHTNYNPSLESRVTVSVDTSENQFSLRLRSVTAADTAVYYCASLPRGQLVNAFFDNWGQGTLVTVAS
chimeric antibody I3.1 Fab (human), sequence (light, as listed by the source, chain 2 of 2): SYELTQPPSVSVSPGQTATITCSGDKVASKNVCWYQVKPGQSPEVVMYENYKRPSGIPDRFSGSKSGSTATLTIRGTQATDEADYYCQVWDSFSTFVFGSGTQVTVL

In general, Kd refers to the constant that tells how readily two partners part at equilibrium. Higher therefore signals a looser complex. Take “CH505 T/F gp120 core WT (domain or fragment)”: the Kd in assay [1] was 1.98 µM.
In assay [2], “92UG037.8 gp120 core WT (domain or fragment)” came in with a Kd of 3.28 µM.
